Measured values taken from patent publication US20260132193A1 (XBIOTECH, published 2026).

Molecular target: T1, recombinant human interleukin 1 alpha (IL-1α) (human, UniProt P01583 113-271)
T1 sequence (looked up): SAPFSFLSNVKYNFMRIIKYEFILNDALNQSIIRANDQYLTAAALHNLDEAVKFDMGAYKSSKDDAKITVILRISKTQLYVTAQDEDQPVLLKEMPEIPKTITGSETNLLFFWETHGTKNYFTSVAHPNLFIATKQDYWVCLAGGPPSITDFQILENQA
Test: cell-based or functional assay

HUVEC-based potency assay (ICAM-1 expression by flow cytometry), IC50: 3.4 ng/mL
B1: XIA11 human monoclonal antibody (antibody, V domains shown)
VH: QVQLVQSGAEVKKPGSSVKVSCKASGGRFTNYAILWVRQAPGQGLQWLGGIIPIFDETDHAQDFQDRLTITVDESMTTAYMELSSLRPEDTAIYYCATGSNSYYGLYWGQGTLVTVSS
VL: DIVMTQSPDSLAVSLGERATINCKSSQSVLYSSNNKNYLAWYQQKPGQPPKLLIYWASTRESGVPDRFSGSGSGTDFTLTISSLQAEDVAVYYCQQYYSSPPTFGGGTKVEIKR
